Measurements from paper doi:10.1101/2019.12.12.872739.

Target: LecB-biotin (Pseudomonas aeruginosa lectin LecB, biotinylated) (Pseudomonas aeruginosa) (UniProt Q9HYN5)
Assay: pull-down

Substance: β1-integrin (glycosylated, endogenous in MDCK cells) (receptor)
- percent of total β1-integrin extracted by LecB-biotin: 75%
